In this assay the target is human olfactory CNGA2/A4/B1b heterotetrameric channel (human) (UniProt Q16280).

This is an account of results in article PMC12549891.

Sequence of human olfactory CNGA2/A4/B1b heterotetrameric channel (human) (Q16280 whole entry, chain 1 of 3): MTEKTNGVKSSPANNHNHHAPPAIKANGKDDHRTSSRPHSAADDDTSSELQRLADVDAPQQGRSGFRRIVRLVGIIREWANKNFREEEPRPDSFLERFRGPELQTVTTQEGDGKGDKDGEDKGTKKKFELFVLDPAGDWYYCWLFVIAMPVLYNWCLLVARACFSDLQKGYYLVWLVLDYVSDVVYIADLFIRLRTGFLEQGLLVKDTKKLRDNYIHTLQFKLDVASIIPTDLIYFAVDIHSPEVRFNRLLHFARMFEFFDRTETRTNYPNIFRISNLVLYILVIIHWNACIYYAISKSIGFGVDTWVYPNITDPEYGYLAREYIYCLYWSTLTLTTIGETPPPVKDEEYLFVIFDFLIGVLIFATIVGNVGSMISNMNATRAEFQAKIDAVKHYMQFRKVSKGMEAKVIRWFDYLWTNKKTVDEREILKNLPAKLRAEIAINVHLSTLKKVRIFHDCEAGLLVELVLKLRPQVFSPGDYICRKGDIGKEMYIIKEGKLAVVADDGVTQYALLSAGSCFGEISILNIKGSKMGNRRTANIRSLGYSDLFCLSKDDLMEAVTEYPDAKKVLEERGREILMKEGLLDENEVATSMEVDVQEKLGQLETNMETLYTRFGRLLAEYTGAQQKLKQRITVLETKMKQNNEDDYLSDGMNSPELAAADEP
Sequence of human olfactory CNGA2/A4/B1b heterotetrameric channel (human) (Q8IV77 whole entry, chain 2 of 3, further chain): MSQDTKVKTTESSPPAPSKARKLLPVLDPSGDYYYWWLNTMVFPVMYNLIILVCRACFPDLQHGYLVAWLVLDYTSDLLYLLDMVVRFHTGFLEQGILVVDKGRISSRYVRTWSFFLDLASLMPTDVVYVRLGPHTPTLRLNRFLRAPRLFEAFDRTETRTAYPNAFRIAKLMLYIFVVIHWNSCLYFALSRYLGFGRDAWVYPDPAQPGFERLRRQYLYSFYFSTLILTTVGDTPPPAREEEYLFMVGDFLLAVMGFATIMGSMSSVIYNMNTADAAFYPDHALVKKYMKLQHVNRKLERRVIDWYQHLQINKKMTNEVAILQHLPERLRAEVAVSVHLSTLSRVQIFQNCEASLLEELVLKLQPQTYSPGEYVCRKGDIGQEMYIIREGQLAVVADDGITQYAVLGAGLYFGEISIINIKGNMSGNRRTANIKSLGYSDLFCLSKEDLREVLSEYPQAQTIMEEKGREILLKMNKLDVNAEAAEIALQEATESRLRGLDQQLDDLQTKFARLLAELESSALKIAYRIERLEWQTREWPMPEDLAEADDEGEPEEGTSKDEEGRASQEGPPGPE
Sequence of human olfactory CNGA2/A4/B1b heterotetrameric channel (human) (Q14028 456-1251, chain 3 of 3, further chain): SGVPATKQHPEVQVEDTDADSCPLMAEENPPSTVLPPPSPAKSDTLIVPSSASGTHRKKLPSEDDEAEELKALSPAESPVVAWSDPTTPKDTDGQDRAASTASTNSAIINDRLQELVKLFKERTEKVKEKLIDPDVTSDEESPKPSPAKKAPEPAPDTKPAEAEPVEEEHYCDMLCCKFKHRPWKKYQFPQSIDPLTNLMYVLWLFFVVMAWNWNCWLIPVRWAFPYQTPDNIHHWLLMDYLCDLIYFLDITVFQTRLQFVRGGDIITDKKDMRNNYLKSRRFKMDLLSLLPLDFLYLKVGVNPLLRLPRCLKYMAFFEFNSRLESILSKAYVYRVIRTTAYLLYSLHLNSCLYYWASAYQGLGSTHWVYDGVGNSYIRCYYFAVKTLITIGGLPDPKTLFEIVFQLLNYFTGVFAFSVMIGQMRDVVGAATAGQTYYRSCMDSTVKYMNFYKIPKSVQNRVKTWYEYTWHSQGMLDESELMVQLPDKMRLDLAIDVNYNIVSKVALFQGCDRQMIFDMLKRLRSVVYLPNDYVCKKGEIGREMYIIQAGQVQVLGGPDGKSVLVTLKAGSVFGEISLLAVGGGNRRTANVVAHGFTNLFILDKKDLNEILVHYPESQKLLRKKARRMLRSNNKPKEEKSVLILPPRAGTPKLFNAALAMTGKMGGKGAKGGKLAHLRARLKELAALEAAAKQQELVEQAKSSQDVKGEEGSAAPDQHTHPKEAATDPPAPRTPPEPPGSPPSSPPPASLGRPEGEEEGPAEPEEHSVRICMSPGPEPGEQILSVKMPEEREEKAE

“human calmodulin (from UniProt P0DP23 1-149) (natural protein)”: the time of washout with EGTA-containing bath solution needed to remove the bound (endogenous) CaM from the channel in excised patches worked out at 10 min.
